Here are results for four molecules from article PMC11858715 (Molecules, 2025).

Common to all, as to test: other fluorescence titration
What all share (conditions): both partners purified

Assay [1] deals with T1, sense peptide S1 ([…]), ammodytoxin A segment from position 6 to 11 (Vipera ammodytes).
T1 construct: source: synthetic peptide, bought: GenScript Biotech B.V

Assay [2] has as its target T2, sense peptide S2 (YIYRNYPDF), ammodytoxin A segment from position 115 to 124 (Vipera ammodytes).
T2 peptide: YIYRNYPDF

Assay [3] has as its target T2, sense peptide S2 (YIYRNYPDF), ….

B1: antisense peptide S1A1 (SHHYEP) (designed binder)
peptide: SHHYEP
notes: source: synthetic peptide, bought: GenScript Biotech B.V
What is called Kd is a measure of binding affinity in units of concentration. On to B1, for which the Kd in assay [1] was determined as 4.9 µM. In other words, the single-digit micromolar range.
In assay [1], SHHYSP (designed binder) [antisense peptide S1A2 (SHHYSP)] showed a Kd of 1.4 µM.
As usually defined, the stoichiometry N is the number of molecules, sites or subunits per partner or assembly. Turning to VNISVIGIK (designed binder) [antisense peptide S2A2 (VNISVIGIK)], binding in assay [2] was put at a Kd of 8.9 µM. In addition, in assay [3], the “stoichiometry N” value came out at 1.
Taken in the same sequence, the figures for INISIVGVK (designed binder) [antisense peptide S2A1 (INISIVGVK)] were 1.1 µM and 1.
